Test results from the supplement of paper PMC5998384.

Legend:
[1] = test system: HeLa Kyoto; test: melting temperature (median over replicates), in situ; higher = more thermally stable
[2] = test system: HeLa Kyoto; test: solubility change mitosis vs G1/S (difference of NP-40 vs SDS log2 ratios) (log2 ratio difference); higher = more soluble in mitosis
[3] = test system: HeLa Kyoto; test: solubility in G1/S (NP-40 vs SDS abundance) (log2 ratio); higher = more soluble; details: cell cycle stage: G1/S
[4] = test system: HeLa Kyoto; test: thermal stability score vs G1/S (z-score of summed log2 fold changes over temperatures); higher = more thermally stable than in G1/S
[5] = cell cycle stage: early G1 (4.5 h after nocodazole release)
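For melting temperature (median over replicates), in situ in this document: HeLa Kyoto cells synchronized by double thymidine or nocodazole block, proteins quantified by TMT10plex mass spectrometry, three independent biological replicates.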
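For solubility change mitosis vs G1/S (difference of NP-40 vs SDS log2 ratios) in this document: synchronized HeLa Kyoto cells (double thymidine block for G1/S, nocodazole release for mitosis), protein amounts in NP-40 versus SDS lysates quantified by mass spectrometry, three biological replicates.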
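For solubility in G1/S (NP-40 vs SDS abundance) in this document: HeLa Kyoto cells arrested at G1/S by double thymidine block, proteins quantified by TMT10plex mass spectrometry in mild NP-40 versus SDS extracts, three biological replicates.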
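For thermal stability score vs G1/S (z-score of summed log2 fold changes over temperatures) in this document: synchronized HeLa Kyoto cells, proteins quantified by TMT10plex mass spectrometry, three biological replicates, mitosis taken 0.5 h after nocodazole release, G1/S directly after double thymidine block.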

Sequence | melting temperature ([1]; cell cycle stage: G1/S) | melting temperature ([1]; cell cycle stage: mitosis) | solubility change mitosis (log2) [2] | solubility in G1/S (log2) [3] | thermal stability score [4, 5] | thermal stability score ([4]; cell cycle stage: mitosis)
MAAQVTLEDALSNVDLLEELPLPDQQPCIEPPPSSLLYQPNFNTNFEDRNAFVTGIARYIEQATVHSSMNEMLEEGQEYAVMLYTWRSCSRAIPQVKCNEQPNRVEIYEKTVEVLEPEVTKLMNFMYFQRNAIERFCGEVRRLCHAERRKDFVSEAYLITLGKFINMFAVLDELKNMKCSVKNDHSAYKRAAQFLRKMADPQSIQESQNLSMFLANHNKITQSLQQQLEVISGYEELLADIVNLCVDYYENRMYLTPSEKHMLLKVMGFGLYLMDGSVSNIYKLDAKKRINLSKIDKYFKQLQVVPLFGDMQIELARYIKTSAHYEENKSRWTCTSSGSSPQYNICEQMIQIREDHMRFISELARYSNSEVVTGSGRQEAQKTDAEYRKLFDLALQGLQLLSQWSAHVMEVYSWKLVHPTDKYSNKDCPDSAEEYERATRYNYTSEEKFALVEVIAMIKGLQVLMGRMESVFNHAIRHTVYAALQDFSQVTLREPLRQAIKKKKNVIQSVLQAIRKTVCDWETGHEPFNDPALRGEKDPKSGFDIKVPRRAVGPSSTQLYMVRTMLESLIADKSGSKKTLRSSLEGPTILDIEKFHRESFFYTHLINFSETLQQCCDLSQLWFREFFLELTMGRRIQFPIEMSMPWILTDHILETKEASMMEYVLYSLDLYNDSAHYALTRFNKQFLYDEIEAEVNLCFDQFVYKLADQIFAYYKVMAGSLLLDKRLRSECKNQGATIHLPPSNRYETLLKQRHVQLLGRSIDLNRLITQRVSAAMYKSLELAIGRFESEDLTSIVELDGLLEINRMTHKLLSRYLTLDGFDAMFREANHNVSAPYGRITLHVFWELNYDFLPNYCYNGSTNRFVRTVLPFSQEFQRDKQPNAQPQYLHGSKALNLAYSSIYGSYRNFVGPPHFQVICRLLGYQGIAVVMEELLKVVKSLLQGTILQYVKTLMEVMPKICRLPRHEYGSPGILEFFHHQLKDIVEYAELKTVCFQNLREVGNAILFCLLIEQSLSLEEVCDLLHAAPFQNILPRVHVKEGERLDAKMKRLESKYAPLHLVPLIERLGTPQQIAIAREGDLLTKERLCCGLSMFEVILTRIRSFLDDPIWRGPLPSNGVMHVDECVEFHRLWSAMQFVYCIPVGTHEFTVEQCFGDGLHWAGCMIIVLLGQQRRFAVLDFCYHLLKVQKHDGKDEIIKNVPLKKMVERIRKFQILNDEIITILDKYLKSGDGEGTPVEHVRCFQPPIHQSLASS [CYFIP1] | 51.6 °C | 51.1 °C | -0.136 | -0.33 | -0.593 | -0.58
MAARRGALIVLEGVDRAGKSTQSRKLVEALCAAGHRAELLRFPERSTEIGKLLSSYLQKKSDVEDHSVHLLFSANRWEQVPLIKEKLSQGVTLVVDRYAFSGVAFTGAKENFSLDWCKQPDVGLPKPDLVLFLQLQLADAAKRGAFGHERYENGAFQERALRCFHQLMKDTTLNWKMVDASKSIEAVHEDIRVLSEDAIRTATEKPLGELWK [DTYMK] | 56.9 °C | 54.4 °C | 0.00796 | -0.0236 | -8.56 | -6.57
MAARRITQETFDAVLQEKAKRYHMDASGEAVSETLQFKAQDLLRAVPRSRAEMYDDVHSDGRYSLSGSVAHSRDAGREGLRSDVFPGPSFRSSNPSISDDSYFRKECGRDLEFSHSDSRDQVIGHRKLGHFRSQDWKFALRGSWEQDFGHPVSQESSWSQEYSFGPSAVLGDFGSSRLIEKECLEKESRDYDVDHPGEADSVLRGGSQVQARGRALNIVDQEGSLLGKGETQGLLTAKGGVGKLVTLRNVSTKKIPTVNRITPKTQGTNQIQKNTPSPDVTLGTNPGTEDIQFPIQKIPLGLDLKNLRLPRRKMSFDIIDKSDVFSRFGIEIIKWAGFHTIKDDIKFSQLFQTLFELETETCAKMLASFKCSLKPEHRDFCFFTIKFLKHSALKTPRVDNEFLNMLLDKGAVKTKNCFFEIIKPFDKYIMRLQDRLLKSVTPLLMACNAYELSVKMKTLSNPLDLALALETTNSLCRKSLALLGQTFSLASSFRQEKILEAVGLQDIAPSPAAFPNFEDSTLFGREYIDHLKAWLVSSGCPLQVKKAEPEPMREEEKMIPPTKPEIQAKAPSSLSDAVPQRADHRVVGTIDQLVKRVIEGSLSPKERTLLKEDPAYWFLSDENSLEYKYYKLKLAEMQRMSENLRGADQKPTSADCAVRAMLYSRAVRNLKKKLLPWQRRGLLRAQGLRGWKARRATTGTQTLLSSGTRLKHHGRQAPGLSQAKPSLPDRNDAAKDCPPDPVGPSPQDPSLEASGPSPKPAGVDISEAPQTSSPCPSADIDMKTMETAEKLARFVAQVGPEIEQFSIENSTDNPDLWFLHDQNSSAFKFYRKKVFELCPSICFTSSPHNLHTGGGDTTGSQESPVDLMEGEAEFEDEPPPREAELESPEVMPEEEDEDDEDGGEEAPAPGGAGKSEGSTPADGLPGEAAEDDLAGAPALSQASSGTCFPRKRISSKSLKVGMIPAPKRVCLIQEPKVHEPVRIAYDRPRGRPMSKKKKPKDLDFAQQKLTDKNLGFQMLQKMGWKEGHGLGSLGKGIREPVSVGTPSEGEGLGADGQEHKEDTFDVFRQRMMQMYRHKRANK [SUGP2] | 46 °C | 48.8 °C | 0.277 | -0.497 | 1.78 | 2.89
MAARSWQDELAQQAEEGSARLREMLSVGLGFLRTELGLDLGLEPKRYPGWVILVGTGALGLLLLFLLGYGWAAACAGARKKRRSPPRKREEAAAVPAAAPDDLALLKNLRSEEQKKKNRKKLSEKPKPNGRTVEVAEGEAVRTPQSVTAKQPPEIDKKNEKSKKNKKKSKSDAKAVQNSSRHDGKEVDEGAWETKISHREKRQQRKRDKVLTDSGSLDSTIPGIENTITVTTEQLTTASFPVGSKKNKGDSHLNVQVSNFKSGKGDSTLQVSSGLNENLTVNGGGWNEKSVKLSSQISAGEEKWNSVSPASAGKRKTEPSAWSQDTGDANTNGKDWGRSWSDRSIFSGIGSTAEPVSQSTTSDYQWDVSRNQPYIDDEWSGLNGLSSADPNSDWNAPAEEWGNWVDEERASLLKSQEPIPDDQKVSDDDKEKGEGALPTGKSKKKKKKKKKQGEDNSTAQDTEELEKEIREDLPVNTSKTRPKQEKAFSLKTISTSDPAEVLVKNSQPIKTLPPATSTEPSVILSKSDSDKSSSQVPPILQETDKSKSNTKQNSVPPSQTKSETSWESPKQIKKKKKARRET [MTDH] | 59.1 °C | 58.3 °C | 0.414 | -0.39 | -2.14 | -6.31
